Measurements taken from paper PMC4112721 (2013).

B1: VRC01 from stably transformed (transgenic) Nicotiana tabacum plants (antibody, V domains shown)
VH: QVQLVQSGGQMKKPGESMRISCRASGYEFIDCTLNWIRLAPGKRPEWMGWLKPRGGAVNYARPLQGRVTMTRDVYSDTAFLELRSLTVDDTAVYFCTRGKNCDYNWDFEHWGRGTPVIVSS
VL: EIVLTQSPGTLSLSPGETAIISCRTSQYGSLAWYQQRPGQAPRLVIYSGSTRAAGIPDRFSGSRWGPDYNLTISNLESGDFGVYYCQQYEFFGQGTKVQVD
modifications: N-glycan at N297 in the CH2 region (glycopeptide […]), GnGnXF^3 as the major glycan structure | N-glycan in the FR3 of the VL region (glycopeptide […]), GnGnXF^3 as the major glycan structure
B2: VRC01 from transiently transformed Nicotiana benthamiana plants (antibody, V domains shown)
VH: B1 VH
VL: B1 VL
modifications: N-glycan at N297 in the CH2 region (glycopeptide […]), GnGnXF^3 as the major glycan structure | N-glycan in the FR3 of the VL region (glycopeptide […]), GnGnXF^3 as the major glycan structure
B3: VRC01 from HEK cells (antibody, V domains shown)
VH: B1 VH
VL: B1 VL
modifications: N-glycan at N297 in the CH2 region (glycopeptide […]), GnGnF^6 as the predominant glycan structure | N-glycan in the FR3 of the VL region (glycopeptide […]), at least ten glycan structures

Biological target: HIV-1 envelope glycoprotein gp120 IIIB (HIV-1 (isolate IIIB), UniProt P04578 33-511)
Test: SPR

Binder	koff [s⁻¹]
B1	0.000126
B2	0.000159
B3	5.6e-05
